We go through 1 molecule from US20220002363A1, “COMPOSITIONS AND METHODS FOR TREATING PULMONARY DISEASE” (United States Government As Represented By The Department …, priority 2020, published 2022).

“Also recorded” adds a separate entry of the source.

The target in one assay is T1, WT-sFasL (Homo sapiens, UniProt P48023).
T1 construct: made in house
T1 sequence (P48023 103-281): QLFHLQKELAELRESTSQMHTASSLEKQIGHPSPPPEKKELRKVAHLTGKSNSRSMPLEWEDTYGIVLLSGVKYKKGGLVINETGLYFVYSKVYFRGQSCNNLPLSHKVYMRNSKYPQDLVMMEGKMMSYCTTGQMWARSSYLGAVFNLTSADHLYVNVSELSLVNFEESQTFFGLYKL
Kind of assay: Annexin-V externalization (translocation) assay in SAEC with WT:mut sFasL mixtures. Format: cell-based. Particulars: WT:mut sFasL molar ratios of 1:27 and 1:81. How it is done:
FIGS. 2A-D show the mut-sFasL has inhibitory properties. Highly Fas-sensitive Jurkat cells (FIG. 2A), primary human lung small airway epithelial cells (SAEC, FIG. 2B) or murine lung epithelial cells (LA4, FIG. 2D) were incubated with serial dilutions of mutated FasL, (mut sFasL). […] As a confirmatory test, the experiment was repeated using SAEC and an annexin-V translocation assay (FIG. 2C). WT=wild type (no mutant). […] Each dot represents individual data; lines represent means±SD. *=P<0.05; **=P<0.01, ***P<0.001 when compared to WT. One way ANOVA with SIdak's post hoc analysis. […]
(§1) Measurements of apoptotic cascade activation. Apoptotic cascade activation was assessed by determining caspase 3/7 activity and Annexin V externalization. Caspase-3/7 activity was measured using a commercial substrate (Caspase-Glo 3/7 Assay, Promega, Madison, Wis., Cat #G8090) following manufacturer's instructions. Annexin V was measured with a luminescent commercial assay that allows for measurement of annexin V externalization in adherent cells (RealTime-Glo Annexin V assay, Promega, Madison, Wis., Cat #JA1011). Luminescence was measured with a Synergy H4 Microplate Reader (BioTek, Winooski, Vt.). […]

Assay [1] concerns the target T2, recombinant human soluble Fas (Homo sapiens, UniProt P25445).
T2 construct: recombinant human soluble Fas receptors (PeproTech, Rocky Hill, N.J.); purchased PeproTech
T2 sequence (P25445 26-173 limits assumed): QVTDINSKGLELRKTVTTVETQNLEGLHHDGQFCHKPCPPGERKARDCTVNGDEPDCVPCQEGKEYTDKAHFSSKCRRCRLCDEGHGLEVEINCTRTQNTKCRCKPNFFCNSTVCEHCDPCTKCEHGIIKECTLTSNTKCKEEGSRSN
The experiment in a line: Fas-FasL binding assay on wells coated with recombinant human soluble Fas. Particulars: recombinant human Fas 5 μg/mL, detection with polyclonal anti-FasL antibodies. As for the experimental part: (§2) The mixtures were incubated for 2 hours in 96-well plates pre-coated with recombinant hsFas (250 ng/ml). After washing unbound material, biotin was detected using HRP conjugated Streptavidin. […] The sFasL bound to Fas was detected using polyclonal anti-human FasL antibodies. […] Different molar ratios of the Fas-activating antibody CH-11 and mut-sFasL were added, and caspase 3/7 activity measured after 5 hours. […] Data represent the results from three separate experiments, each done in duplicate, and were analyzed by 2-way ANOVA with Sidak's post hoc analysis. […] Each dot represents individual data; lines represent means±SD. *=P<0.05; **=P<0.01, ***P<0.001.
(§3) Antibodies and Reagents. […] FLAG tagged mut-sFasL was detected using HRP anti-FLAG monoclonal antibody (Sigma-Aldrich, Cat #A85920). […]
WT-sFasL inhibition occurs prior to receptor binding. […] Recombinant human Fas at 250 ng/mL were coated and the binding of a fixed concentration of biotinylated WT-sFasL (70 ng/mL) were measured in the presence of serial 3-fold dilutions of either WT-sFasL or mut-sFasL. […] Serial dilutions of either WT-sFasL or mut-sFasL were incubated in wells coated with recombinant human Fas, 5 μg/mL, and after washing, detected sFasL bound to Fas using polyclonal anti-FasL antibodies. […]

For the next assay, the target named is T3, Fas (Homo sapiens, UniProt P25445).
T3 construct: host or cells: Jurkat (human leukemic T lymphocytes)
T3 sequence (P25445 26-335): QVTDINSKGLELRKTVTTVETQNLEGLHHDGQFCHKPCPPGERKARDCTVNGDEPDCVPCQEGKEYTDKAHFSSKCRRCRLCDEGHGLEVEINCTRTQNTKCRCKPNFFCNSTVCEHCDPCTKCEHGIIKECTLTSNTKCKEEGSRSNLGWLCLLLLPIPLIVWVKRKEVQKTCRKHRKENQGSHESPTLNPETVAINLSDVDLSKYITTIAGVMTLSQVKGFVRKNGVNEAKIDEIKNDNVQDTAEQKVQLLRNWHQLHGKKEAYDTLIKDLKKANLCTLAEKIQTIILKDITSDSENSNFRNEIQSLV
The experiment in a line: Caspase 3/7 activity in Jurkat cells with Fas-activating antibody CH-11 and mut-sFasL at different molar ratios. Format: cell-based. Particulars: 5-hour incubation. As for the experimental part:
as §2, §3, §1

B1: mut-sFasL: mutant sFasL molecule in which 8 charged amino acids in the 26 amino acid stalk region were changed to alanine (protein)
chain: QLFALQAALAALAASTSQMATASSLAKQIGHPSPPPEKKELRKVAHLTGKSNSRSMPLEWEDTYGIVLLSGVKYKKGGLVINETGLYFVYSKVYFRGQSCNNLPLSHKVYMRNSKYPQDLVMMEGKMMSYCTTGQMWARSSYLGAVFNLTSADHLYVNVSELSLVNFEESQTFFGLYKL
B1: the “Annexin V translocation” value in the assay with WT-sFasL is “significantly reduced”. Moreover, the “binding curve to immobilized Fas relative to WT-sFasL” value in assay [1] is “shifted to the right, indicating decreased binding ability for Fas”; in assay [1] (listed as mut sFasL), “shifted to the left”. Also, the “effect on CH11 activity at very high molar ratios” value with Fas is recorded as “increased CH11 activity”. Further, the “effect on caspase 3/7 activation induced by CH11” value with Fas (different molar ratios of mut-sFasL and antibody) is reported as “did not attenuate the caspase 3/7 activation induced by CH11; also recorded: did not inhibit the activity of CH11”.
